Data reported in the supplement of paper PMC10567573.
± gives the standard deviation.

Experiment: protein stability index of a GFP-peptide fusion (GPS, HEK-293T) (PSI 1-6); higher = more stable
[1] = treatment: DMSO, c terminus: a fixed tail appended
[2] = treatment: MLN4924 1 uM, 8 h, c terminus: a fixed tail appended
[3] = treatment: DMSO, c terminus: native
[4] = treatment: MLN4924 1 uM, 8 h, c terminus: native
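Note: 24-mer peptide tiles fused after GFP, lentivirally expressed, FACS-sorted into six equal bins by GFP/DsRed ratio, decoded by Illumina sequencing, PSI is the read-weighted mean bin number.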

QVLKKIAQKALDLPSSGEGLAFFT [HMOX1] gave a protein stability index [1] of 2.57 ± 0.7 and a protein stability index [2] of 2.02 ± 0.41.

Work on SARDASPTPSTDAEYPANGSGADR [NCK2] yielded a protein stability index [1] of 5.51 ± 0.17 and a protein stability index [2] of 5.53 ± 0.25.

KKHKNSQLDKNSEVYQEVQAMFDT [FAM98B] gave a protein stability index [1] of 4.31 ± 0.39 and a protein stability index [2] of 4.27 ± 0.35.

Sequence MALPGARARGWAAAARAAQRRRRV [RSAD1] has a protein stability index [1] of 4.64 ± 0.15 and a protein stability index [2] of 4.61 ± 0.17.

Work on QPMQNGEEDRPLGGGEGHQPAGNR [BEX3] yielded a protein stability index [1] of 5.42 ± 0.4 and a protein stability index [2] of 5.36 ± 0.35.

In the case of ERELLGQDEETAMRKSLGEEELS [RSPH3], the protein stability index [3] is reported as 5.48 ± 0.4 and the protein stability index [4] is reported as 5.575 ± 0.042.

Work on DNLSDLVMVRWNKSLEWSPWNCIL [IQUB] yielded a protein stability index [1] of 2.56 ± 0.76 and a protein stability index [2] of 2.39 ± 0.34.

In the case of QAPPADFIPAHVAFDKKVLKFDAY [EFHC1], the protein stability index [1] is reported as 3.01 ± 0.38 and the protein stability index [2] is reported as 2.98 ± 0.28.

ARHNYNDLCPPIGRRAATALLWLS [GNAS] showed a protein stability index [1] of 2.15 ± 0.43 and a protein stability index [2] of 2.27 ± 0.35.

With GRREGCDICAGKAGCPIVEEPLG [RPS21] the protein stability index [3] was 4.03 ± 0.13 and the protein stability index [4] was 4.33 ± 0.3.

For STFSTNYRSLGSVQAPSYGARPVS [KRT18], the protein stability index [1] was 3.53 ± 0.16 and the protein stability index [2] was 3.61 ± 0.2.

With EPPEEPEQCPVIDSQAPAGSLDLV [SPDEF] the protein stability index [1] was 5.37 ± 0.17 and the protein stability index [2] was 5.51 ± 0.18.

Sequence FGSRSLYSLGGVRSLNVASGSGKS [KRT71] has a protein stability index [1] of 2.35 ± 0.77 and a protein stability index [2] of 3.01 ± 0.82.

Sequence DTGETSMLKRPVLLHLHQTAHADE [STEAP1] has a protein stability index [1] of 4.63 ± 0.078 and a protein stability index [2] of 4.88 ± 0.18.

HVPEGFDPTGPAGLGRPTPGLSQG [EHMT1] gave a protein stability index [1] of 4.4 ± 0.27 and a protein stability index [2] of 4.51 ± 0.11.

With NVTNLEGGPGRQTTSPNVLWPTPG [ESR2] the protein stability index [1] was 3.17 ± 0.35 and the protein stability index [2] was 3.17 ± 0.37.

Sequence LRAPTISDLLNDQDLLDVIRIKLD [EDARADD] has a protein stability index [1] of 2.11 ± 0.61 and a protein stability index [2] of 2.06 ± 0.29.

Sequence TLRLEKLGHPALSQEEGKSALEDQ [PPFIA4] has a protein stability index [1] of 5.38 ± 0.19 and a protein stability index [2] of 5.14 ± 0.21.

DGIPQVYYFGPCGKYNAMVLELLG [CSNK1G3] showed a protein stability index [1] of 2.31 ± 0.58 and a protein stability index [2] of 2.27 ± 0.43.

GSGAPSPLSKSSPATTVTSPNSTP [SNAP91] showed a protein stability index [1] of 5.44 ± 0.16 and a protein stability index [2] of 5.4 ± 0.16.

Sequence PPRIPQADQWKSSNKSLVEALGLE [RHOBTB1] has a protein stability index [1] of 4.45 ± 0.27 and a protein stability index [2] of 4.33 ± 0.26.

Sequence VGFRLCNSTGGDCFYRGYTSGVAA [SCNN1D] has a protein stability index [1] of 2.01 ± 0.58 and a protein stability index [2] of 1.94 ± 0.54.

With GCKVPQEALLKLLAGLTRPDVRPP [SEPHS2] the protein stability index [1] was 2.28 ± 0.33 and the protein stability index [2] was 2.03 ± 0.29.

In the case of RAASSQRAEEEDDDIKQLAAWAT [CHMP4C], the protein stability index [3] is reported as 5.34 ± 0.4 and the protein stability index [4] is reported as 5.2 ± 0.2.

Sequence DSRLMCSSVQKALFEEEDHVKKLQ [CCDC3] has a protein stability index [1] of 4.71 ± 0.16 and a protein stability index [2] of 4.74 ± 0.25.

PDLLPTDYRKQLQYPNPLPVLSGA [VPS39] showed a protein stability index [1] of 3.34 ± 0.4 and a protein stability index [2] of 3.43 ± 0.14.

Work on WDLRDQSVVRDLKGYPDGVKSIVV [TLE6] yielded a protein stability index [1] of 2.63 ± 0.25 and a protein stability index [2] of 2.63 ± 0.077.

IFRSKLKNRPSSEGSINKILSGLD [CDC14A] gave a protein stability index [1] of 2.27 ± 0.32 and a protein stability index [2] of 2.69 ± 0.42.

CNVKYKRWALLSCRGKKPSRIYGQ [KLHDC10] showed a protein stability index [1] of 2.21 ± 0.42 and a protein stability index [2] of 2.22 ± 0.37.

Sequence LMRSQSPKAQPQTWKSGKQTMLSH [TRIM29] has a protein stability index [1] of 3.34 ± 0.33 and a protein stability index [2] of 3.6 ± 0.28.

Sequence KTVSLQIFSVLNSDDAAAPALETQ [SMOC2] has a protein stability index [1] of 3.2 ± 0.59 and a protein stability index [2] of 3.56 ± 0.38.

PRASISHVTCVDQSEHTMVLRCQL [C2CD2L] showed a protein stability index [1] of 2.34 ± 0.26 and a protein stability index [2] of 2.26 ± 0.28.

Work on DASEAHESSSRGEAGAPGEEDIQG [CHGB] yielded a protein stability index [1] of 5.69 ± 0.3 and a protein stability index [2] of 5.56 ± 0.28.

In the case of RSHLIGHQRTHSEEETYKCLECGK [ZNF449], the protein stability index [1] is reported as 4.26 ± 0.16 and the protein stability index [2] is reported as 4.39 ± 0.26.

Sequence LVGDSDVGKGEILESLQDGAAESP [RAB40C] has a protein stability index [1] of 5.35 ± 0.27 and a protein stability index [2] of 5.39 ± 0.3.

In the case of DLERQNQEYQVLLDVRARLECEIN [KRT33B], the protein stability index [1] is reported as 3.39 ± 0.29 and the protein stability index [2] is reported as 3.58 ± 0.22.

For GLELALACDIRVAASSAKMGLVET [AUH], the protein stability index [1] was 2.37 ± 0.77 and the protein stability index [2] was 2.34 ± 0.18.

Work on DPLRSGTVLVSVTVFDANDNAPVF [PCDHGA10] yielded a protein stability index [1] of 2.73 ± 0.42 and a protein stability index [2] of 2.82 ± 0.6.

TFQEPLYPALRLWEGAISIPRLP [TRIM14] showed a protein stability index [3] of 2.65 ± 0.62 and a protein stability index [4] of 2.67 ± 0.66.

In the case of LAALCLAGPPAPARACQLPSEWRP [CCDC3], the protein stability index [1] is reported as 2.96 ± 0.2 and the protein stability index [2] is reported as 2.92 ± 0.058.

GRQLEKVPEKRDSGMTEVERTYSA [SPATS1] showed a protein stability index [1] of 5.22 ± 0.3 and a protein stability index [2] of 5.24 ± 0.4.

Work on NLGDALDSSNSMQTIQKTTTRRIV [KRT18] yielded a protein stability index [1] of 4.38 ± 0.19 and a protein stability index [2] of 4.51 ± 0.28.

SRFRKAYKPEQPLVRLRGGAYIGE [LOXL2] showed a protein stability index [1] of 3.16 ± 0.26 and a protein stability index [2] of 2.98 ± 0.39.

Work on LIKAGADIELGCSTPLMEAAQEGH [ANKRD17] yielded a protein stability index [1] of 4.21 ± 0.57 and a protein stability index [2] of 4.14 ± 0.35.
